Data: patent publication US20050182242A1, “Global analysis of protein activities using proteome chips” (priority 2001, published 2005)

What was measured:
Settings in all cases: liposome binding signal on yeast proteome chip, Cy3-streptavidin detection
PI(3,4,5)P3 liposomes = assay: Yeast proteome chip probed with PI(3,4,5)P3 liposomes
[1] = tested on: phosphatidylcholine (PC) liposomes; assay: Yeast proteome chip probed with PC liposomes
In short: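 Binding detected by fluorescent streptavidin (Cy3 or Cy5, >30 min in the dark at RT) recognizing biotin-DHPE (1% w/w) in PC liposomes, which carried 5% (w/w) of the named phosphoinositide unless PC-only. Liposomes, made by sonication in TBS, were applied to blocked chips for 1 h at RT, then washed in PBS.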

PI(3,4)P2 liposomes = assay: Yeast proteome chip probed with PI(3,4)P2 liposomes
PI(3)P liposomes = assay: Yeast proteome chip probed with PI(3)P liposomes
Description: To identify PI-binding proteins in yeast, liposomes were used as probes because the liposome provides the most relevant physiological condition to assay the interactors. Six types of liposomes were used. Each contains phosphatidylcholine (“PC”) with 1% (w/w) N-(biotinoyl)-1,2-dihexadecanoyl-sn-glycero-3-phosphoethanolamine, triethylammonium salt (biotin DHPE). The biotinylated lipid serves as a label that can be detected by Cy3-streptavidin (21). In addition to PC, the five other liposomes contain either 5% (w/w) PI(3)P, PI(4)P, PI(3,4)P2, PI(4,5)P2, or PI(3,4,5)P3 (FIG. 3A).
The protein-liposome interaction was assayed as follows. Appropriate amounts of each lipid in chloroform were mixed and dried under nitrogen. The lipid mixture was resuspended in TBS buffer by vortexing. The liposomes were created by sonication. Blocked proteome chips were washed three to five times in PBS buffer, and the extra liquid on the glass surface was removed by tapping the slides vertically on a KIMWIPE™. 200 μl of liposome solution was added to the proteome chip and immediately covered by a hydrophobic plastic cover slip (GRACE BIO-LAB™, USA). After trapped air bubbles were removed, the chip was incubated in a humidity chamber at RT for one hour. To remove the cover slip, the chip was immersed into large volume of PBS buffer (50 ml), so that the slip would float away. The chip was then moved to a second PBS bath (>50 ml) and washed 3×5 min with shaking at RT. After removing extra liquid on the surface of the chip, about 100 μl of Cy3 or Cy5 conjugated streptavidin (PIERCE™, USA; 1:2000 to 1:4000 dilution) was added to the surface and covered by a hydrophobic plastic cover slip (GRACE BIO-LABS™, USA). The chip was incubated for greater than 30 min in the dark at RT. The chip was then washed as described above. To completely remove the liquid on the chip, the chip was spun to dryness at 1500-2000 rpm for 5-10 min at RT.
• 1. S. Fields, Y. Kohara, D. J. Lockhart, Proc. Natl. Acad. Sci. 96, 8825 (1999); A. Goffeau et al., Science 274, 563 (1996). • 2 P. Ross-Macdonald et al., Nature 402, 413 (1999); J. L., DeRisi, V. R. Iyer, P. O. Brown, Science 278, 680 (1997); E. A. Winzeler et al., Science 285, 901 (1999). P. Uetz et al., Nature 403, 623 (2000); T. Ito et al., Proc. Natl. Acad. Sci. USA. 97, 1143 (2000) • 3 H. Zhu, M. Snyder, Curr. Opin. Chem. Biol. 5, 40 (2001). • 4 M. R. Martzen et al., Science 286, 1153 (1999). • 5 H. Zhu et al., Nat. Genet. 26, 283 (2000). • 6 G. MacBeath, S. L. Schreiber, Science 289, 1760 (2000). • 7 A. Caveman, J. Cell Sci. 113, 3543 (2000). • 8 P. Arenkov et al., Anal. Biochem 278, 123 (2000). • 9 D. A. Mitchell, T. K. Marshall, R. J. Deschenes, Yeast 9, 715 (1993). The expression vector pEGH was created by inserting an RGS-HisX6 epitope tag between the GST gene and the polycloning site of pEG(KG). The yeast ORFs were cloned using the strategy described previously (5), except every step was done in a 96-well format. Plasmid DNAs confirmed by DNA sequencing were reintroduced into both yeast (Y258) and E. coli (DH5a). […] 0.1 mM calcium was present in buffers in all subsequent steps. The chip was washed three times with PBS at RT. Cy3-conjugated streptavidin (Jackson IR, USA) (1:5000 dilution) was added to the chip and incubated for 30 min at RT. After extensive washing, the chip was spun dry and scanned using a microarray scanner; the data was subsequently acquired with the GENEPIX™ array densitometry software (Axon, USA). • 12 S. S. Hook, A. R. Means, Annu. Rev. Pharmacol. Toxicol.41, 471 (2001). • 13 M. S. Cyert, R. Kunisawa, D. Kaim, J. Thorner, Proc. Natl. Acad. Sci. USA 88, 7376 (1991). • 14 D. A. Stirling, K. A. Welch, M. J. Stark, EMBO J. 13, 4329 (1994). • 15 F. Bohl, Kruse, EMBO J. 19, 5514 (2000); E. Bertrand et al., Mol. Cell 2, 437 (1998). • 16 D. C. Winter, E. Y. Choe, R. Li, Proc. Nat. Acad Sci. USA 96, 7288 (1999). • 17 C.

PI(4,5)P2 liposomes = assay: Yeast proteome chip probed with PI(4,5)P2 liposomes
PI(4)P liposomes = assay: Yeast proteome chip probed with PI(4)P liposomes

| Molecule | PI(3, 4, 5)P3 (PI(3,4,5)P3 liposomes) | PC [1] | PI(3, 4)P2 (PI(3,4)P2 liposomes) | PI(3)P (PI(3)P liposomes) | PI(4, 5)P2 (PI(4,5)P2 liposomes) | PI(4)P (PI(4)P liposomes) |
| --- | --- | --- | --- | --- | --- | --- |
| URA8: yeast GST-HisX6 fusion protein on proteome chip (protein, UniProt P38627 1-578, looked up, GST-His6 tag, yeast GST-HisX6 fusion protein on proteome chip) CTP synthase 2: MKYVVVSGGVISGIGKGVLASSTGMLLKTLGLKVTSIKIDPYMNIDAGTMSPLEHGECFVLDDGGETDLDLGNYERYLGITLSRDHNITTGKIYSHVISRERRGDYLGKTVQIVPHLTNAIQDWIQRVSKIPVDDTGLEPDVCIIELGGTVGDIESAPFVEALRQFQFEVGRENFALIHVSLVPVIHGEQKTKPTQAAIKDLRSLGLIPDMIACRCSEELNRSTIDKIAMFCHVGPEQVVNVHDVNSTYHVPLLLLKQHMIDYLHSRLKLGEVPLTLEDKERGSQLLTNWENMTKNLDDSDDVVKIALVGKYTNLKDSYLSVTKSLEHASMKCRRQLEILWVEASNLEPETQEVDKNKFHDSWNKLSSADGILVPGGFGTRGIEGMILAAKWARESGVPFLGVCLGLQVAAIEFARNVIGRPNSSSTEFLDETLLAPEDQVVIYMPEIDKEHMGGTMRLGLRPTIFQPNSEWSNIRKLYGEVNEVHERHRHRYEINPKIVNDMESRGFIFVGKDETGQRCEIFELKGHPYYVGTQYHPEYTSKVLEPSRPFWGLVAAASGTLGEVIKDINLSEGNENE | 42.86 | 20.25 | −2.83 | 11.50 | 23.95 | 34.40 |
| KSS1: yeast GST-HisX6 fusion protein on proteome chip (protein, UniProt P14681 1-368, looked up, GST-His6 tag, yeast GST-HisX6 fusion protein on proteome chip) Mitogen-activated protein …: MARTITFDIPSQYKLVDLIGEGAYGTVCSAIHKPSGIKVAIKKIQPFSKKLFVTRTIREIKLLRYFHEHENIISILDKVRPVSIDKLNAVYLVEELMETDLQKVINNQNSGFSTLSDDHVQYFTYQILRALKSIHSAQVIHRDIKPSNLLLNSNCDLKVCDFGLARCLASSSDSRETLVGFMTEYVATRWYRAPEIMLTFQEYTTAMDIWSCGCILAEMVSGKPLFPGRDYHHQLWLILEVLGTPSFEDFNQIKSKRAKEYIANLPMRPPLPWETVWSKTDLNPDMIDLLDKMLQFNPDKRISAAEALRHPYLAMYHDPSDEPEYPPLNLDDEFWKLDNKIMRPEEEEEVPIEMLKDMLYDELMKTME | 0.23 | 16.43 | 87.91 | −11.50 | −2.61 | 10.45 |
| MAG1: yeast GST-HisX6 fusion protein on proteome chip (protein, UniProt P22134 1-296, looked up, GST-His6 tag, yeast GST-HisX6 fusion protein on proteome chip) DNA-3-methyladenine …: MKLKREYDELIKADAVKEIAKELGSRPLEVALPEKYIARHEEKFNMACEHILEKDPSLFPILKNNEFTLYLKETQVPNTLEDYFIRLASTILSQQISGQAAESIKARVVSLYGGAFPDYKILFEDFKDPAKCAEIAKCGLSKRKMIYLESLAVYFTEKYKDIEKLFGQKDNDEEVIESLVTNVKGIGPWSAKMFLISGLKRMDVFAPEDLGIARGFSKYLSDKPELEKELMRERKVVKKSKIKHKKYNWKIYDDDIMEKCSETFSPYRSVFMFILWRLASTNTDAMMKAEENFVKS | 29.02 | 10.86 | −2.20 | 6.50 | 5.23 | 21.34 |
| YLR020C: yeast GST-HisX6 fusion protein on proteome chip (protein, UniProt Q07950 1-538, looked up, GST-His6 tag, yeast GST-HisX6 fusion protein on proteome chip) Sterol esterase 2: MVNKVVDEVQRLVSAIILTSFMTGLFILSLWKNYVTVHFQHKNDPRDTRSSRTKIQPNDKKKKRPARHSRPLSISSTTPLDLQRDQENNIEYDRTVTSKLSMTSNASLSENGDGNANIKMETNVNQAPYAAENPFQNIALAEDTKLVPDLKYYYKEYGIDIEEFEVETDDGFIIDLWHFKSRLNDGVEEVKREPILLLHGLLQSCGAFASSGRKSLAYFLYESGFDVWLGNNRCGLNAKWNMKKLGNDHSKKWDWDMHQMVQYDLKALINYVLDSTGYAKLSLVAHSQGTTQGFMGLVNGEKLYASDFKLVDKLENFVALAPAVYPGPLLDEKAFVRLMAKGIDSPWYFGRRSFIPLMMTMRKLMVGTKIFSFLSYIMFNYLFDWNDVLWDRVLRDRNFLFSPVHISVKLMQWWLSPLPNKLSFKKGAEKIFPDKKTWFPIAKNDDDSGNNLDNNKLHLNPKRQNSEEFPHIIMFIPKQDRLVDGERLINHFINHEANAVYKIWYIDEYSHLDVLWAHDVIDRIGKPMIENLRFPNAR | 1.24 | 7.34 | 2.67 | 3.75 | 15.68 | −5.66 |
| APG7: yeast GST-HisX6 fusion protein on proteome chip (protein, UniProt P38862 1-630, looked up, GST-His6 tag, yeast GST-HisX6 fusion protein on proteome chip) Ubiquitin-like …: MSSERVLSYAPAFKSFLDTSFFQELSRLKLDVLKLDSTCQPLTVNLDLHNIPKSADQVPLFLTNRSFEKHNNKRTNEVPLQGSIFNFNVLDEFKNLDKQLFLHQRALECWEDGIKDINKCVSFVIISFADLKKYRFYYWLGVPCFQRPSSTVLHVRPEPSLKGLFSKCQKWFDVNYSKWVCILDADDEIVNYDKCIIRKTKVLAIRDTSTMENVPSALTKNFLSVLQYDVPDLIDFKLLIIRQNEGSFALNATFASIDPQSSSSNPDMKVSGWERNVQGKLAPRVVDLSSLLDPLKIADQSVDLNLKLMKWRILPDLNLDIIKNTKVLLLGAGTLGCYVSRALIAWGVRKITFVDNGTVSYSNPVRQALYNFEDCGKPKAELAAASLKRIFPLMDATGVKLSIPMIGHKLVNEEAQHKDFDRLRALIKEHDIIFLLVDSRESRWLPSLLSNIENKTVINAALGFDSYLVMRHGNRDEQSSKQLGCYFCHDVVAPTDSLTDRTLDQMCTVTRPGVAMMASSLAVELMTSLLQTKYSGSETTVLGDIPHQIRGFLHNFSILKLETPAYEHCPACSPKVIEAFTDLGWEFVKKALEHPLYLEEISGLSVIKQEVERLGNDVFEWEDDESDEIA | 0.45 | 5.87 | −0.63 | −22.50 | 59.23 | 18.29 |
